System: E. coli ribosomal proteins
Assay: Immunodotblot binding to HPLC-separated ribosomal proteins
Details: 10 μg/ml, 4° C. overnight, dot blot
From the text: The question whether CIDAMP-dependent morphological changes in bacteria are direct or indirect was addressed by testing the hypothesis that CIDAMPs directly bind to ribosomes and ribosomal proteins. For this purpose, ribosomes of E. coli were separated and partially purified by SulfoLink®-coupling resin-chromatography (Maguire et al., 2008, RNA, 14, 188-195) followed by reversed phase high performance liquid chromatography (HPLC) using an Aeris 3.6 μm C18 widepore RP-HPLC column (Phenomenex) and an increasing gradient of acetonitrile (ACN, max.: 80% v/v) in aqueous 0.1% trifluoroacetic acid.
Aliquots of each HPLC fraction were lyophilized, the residues dissolved in 5 μl water each and then applied to a nitrocellulose membrane. After blocking with 5% bovine serum albumin in PBS and washing with PBS, biotinylated rhHRNR2591-2694, a 103 amino acid fragment of hornerin, (10 μg/ml) was added and incubated at 4° C. overnight. After 4-times washing, Strep-Tactin® (1:200; iba lifescience) in PBS was added, incubated for 1 h and then, after 6 times washing with PBS, substrate was added and the blots developed.

B1: biotinylated rhHRNR2591-2694: biotinylated rhHRNR2591-2694, a 103 amino acid fragment of hornerin (protein)
chain: SQHGSGSGHSSGYGQHGSRSGQSSRGERHGSSSGSSSHYGQHGSGSRQSSGHGRQGSGSGQSPSRGRHGSGLGHSSSHGQHGSGSGRSSSRGPYESRLGHSSVF
modifications: biotinylated (position not given)
notes: biotinylated rhHRNR2591-2694, a 103 amino acid fragment of hornerin
- binding to ribosomal proteins (in words): specific binding
